Biological target: SARS-CoV-2 main protease (M^pro) triple mutant (Cys85Ser|Cys156Ser|Cys300Ser), (His)6-tagged (SARS-CoV-2)
Assay: SEC-MALS

SARS-CoV-2 main protease (M^pro) triple mutant (Cys85Ser|Cys156Ser|Cys300Ser), (His)6-tagged (enzyme)
stoichiometry N: 2

Source: publication PMC9161685
